Laboratory results: the DeepSol protein solubility set

Experiment: soluble on expression in E. coli; label from the status in PepcDB or PDB records

Sequence: MFSAKKLSPADKLKNISSMLEEIVEDTTVPRNIRAAADNAKNALHNEEQELIVRSATAIQYLDDISEDPNMPIHTRTQIWGIVSELETIK
- soluble on expression in E. coli: soluble

Sequence: HLQGLSAAVLDLTGLAQKGGTVVSHIRLAPSGTANGPVRLDWQQADAAILCDPVAAVAPDSLGALRRDHTRTTVNTYVAPVSDFTRNPDAPLRADALLAKIRHAAGEHVAALDAHAAAQALFGDSILSNMFMLGHAWQRGDVPLALAALARAIELNGVAVAANRAAFDAGRLAAHE
- soluble on expression in E. coli: not soluble

Sequence: MRWDIFCHVVDNYGDIGICWRLARQLVTEFDISVRMLVDDLGAMQRICPAIDPRLAVQNIRGVEILHWVEPFADLVPADVVIEAFGCELPPRYIAAMAAASPRFSEPEGKTDRIWINLEYLSAEQWVEGCHGLASPHPSLPLIKYFFFPGFTAATGGLLREAELFTLRDASRTDPAGLWRELGITNPAADEATVSLFCYDSAPISDLLEAWAGSISPVRCLLPEGTASASAASWAGISRLAAGDSIQRGNLTLHVIPFMSQENYDHLLWACDCNFVRGEDSFVRAQWAVRPIVWQIYPQQENVHLIKLEAFLDLYCQELIEPAADAVRAFHRSWNNNEQPDWNCFWKYRDVLQQHAMAWAERLAQIPNLASSLVNFCRNR
- soluble on expression in E. coli: not soluble

Sequence: MGSDKIHHHHHHMRKYSQRHIPVMVREVIEFLKPEDEKIILDCTVGEGGHSRAILEHCPGCRIIGIDVDSEVLRIAEEKLKEFSDRVSLFKVSYREADFLLKTLGIEKVDGILMDLGVSTYQLKGENRGFTFEREEPLDMRMDLESEVTAQKVLNELPEEELARIIFEYGEEKRFARRIARKIVENRPLNTTLDLVKAVREALPSYEIRRRKRHFATKTFQAIRIYVNRELENLKEFLKKAEDLLNPGGRIVVISFHSLEDRIVKETFRNSKKLRILTEKPVRPSEEEIRENPRARSGRLRAAERIEEGGD
- soluble on expression in E. coli: not soluble

Sequence: MSQIMYNYPAMMAHAGDMAGYAGTLQSLGADIASEQAVLSSAWQGDTGITYQGWQTQWNQALEDLVRAYQSMSGTHESNTMAMLARDGAEAAKWGG
- soluble on expression in E. coli: soluble

Sequence: MHHHHHHNEEFRPEMLQGKKVIVTGASKGIGREMAYHLSKMGAHVVLTARSEEGLQKVVSRCLELGAASAHYIAGTMEDMTFAEQFIVKAGKLMGGLDMLILNHITQTSLSLFHDDIHSVRRVMEVNFLSYVVMSTAALPMLKQSNGSIAVISSLAGKMTQPMIAPYSASKFALDGFFSTIRTELYITKVNVSITLCVLGLIDTETAMKEISGIINAQASPKEECALEIIKGTALRKSEVYYDKSPLTPILLGNPGRKIMEFFSLRYYNKDMFVSN
- soluble on expression in E. coli: soluble

Sequence: MLRHSRHNAVFILDTAGIIMGISEGAQRSYGYTHKDVHGKYFDMLFTEESRKQQKPELELAKVLQYGTAADYNEFVHKDGRHIWTEGESLLITDVWGDSFIIKNVHSLDKEKEEQRNLQQQNEKLLRINNDLDTFVYTASHDLKNPVSNIESLVSIMQYELKHGADAEAVEPVMSRITEALNRFKTTLNELTEISRIDAPVDTDEMYVSFDSILQEVMYDVQDLVDSTEASIQSDFSAATMVRFSKKNVRSILFNLLSNALKYRSPERKPEIYIETKPAGEYILLSVRDNGIGIEPAQHKKVFQFFKRLHTHVQGTGVGMGIVKKIMDNTGGKITLESIPGKGSAFTVHFKQ
- soluble on expression in E. coli: not soluble

Sequence: SLAAGVLPQNEQPYSTLVNNSECVANMKGNLERPTPKYTKVGERLRHVIPGHMACSMACGGRACKYENPARWSEQEQAIKGVYSSWVTDNILAMARPSSELLEKYHIIDQFLSHGIKTIINLQRPGEHASCGNPLEQESGFTYLPEAFMEAGIYFYNFGWKDYGVASLTTILDMVKVMTFALQEGKVAIHCHAGLGRTGVLIACYLVFATRMTADQAIIFVRAKRPNSIQTRGQLLCVREFTQFLTPLRNIFSCCDPKAHAVTLPQYLIRQRHLLHGYEARLLKHVPKIIHLVCKLLLDLAE
- soluble on expression in E. coli: soluble

Sequence: MGSDKIHHHHHHMNVTDLPQACISLIENVPGIDFIDEDFAIFDNIDDIPSLDHPMRIDAVVFALCTKGFMRIRINMEEYVVGENHLVLSLPDQIIQHVERSEDVAGIFIVISKNFMEEIIPHIQNTLPAFFYIKEHPVTELNAEEIGCIKEYHSFLWKKVKAKRHPYRKEIAQSLLLAVFHEVYGMFKNHMPIEVKKSRQEELFAAFIQTLALHHKQERSVAFYAGKLCVTPKYLSLLVKNVSNRTAGEWIDNYVVLEAKALLSSSTLSIQEISDRLNFTNQSFFGKYFKQHVGISPTEYRKKW
- soluble on expression in E. coli: not soluble

Sequence: VDAFVGTWKLVDSKNFDDYMKSLGVGFATRQVGNMTKPTTIIEVNGDTVIIKTQSTFKNTEISFKLGVEFDETTADDRKVKSIVTLDGGKLVHVQKWNGQETSLVREMVDGKLILTLTHGTAVCTRTYEKQA
- soluble on expression in E. coli: soluble

Sequence: SLHRLNKKAGDYGEKAAEIYLKKSGYTILNRNFRCFLGEVDIIAKNKDYITFVEVKSRWSDTYGLPCEAVNYRKKLKIYRTAKYYIASKSLINYNFRFDVIEVILNHQNDSYDLKFIENAFQI
- soluble on expression in E. coli: soluble

Sequence: MKQKVVSIGDINVANDLPFVLFGGMNVLESRDLAMRICEHYVTVTQKLGIPYVFKASFDKANRSSIHSYRGPGLEEGMKIFQELKQTFGVKIITDVHEPSQAQPVADVVDVIQLPAFLARQTDLVEAMAKTGAVINVKKPQFVSPGQMGNIVDKFKEGGNEKVILCDRGANFGYDNLVVDMLGFSIMKKVSGNSPVIFDVTHALQCRDPFGAASGGRRAQVAELARAGMAVGLAGLFIEAHPDPEHAKCDGPSALPLAKLEPFLKQMKAIDDLVKGFEELDTSK
- soluble on expression in E. coli: soluble

Sequence: APTLISLLEVIEPEVLYSGYDSTLPDTSTRLMSTLNRLGGRQVVSAVKWAKALPGFRNLHLDDQMTLLQYSWMSLMAFSLGWRSYKQSNGNMLCFAPDLVINEERMQLPYMYDQCQQMLKISSEFVRLQVSYDEYLCMKVLLLLSTVPKDGLKSQAVFDEIRMTYIKELGKAIVKREGNSSQNWQRFYQLTKLLDSMHEMVGGLLQFCFYTFVNKSLSVEFPEMLAEIISNQLPKFKAGSVKPLLFHQK
- soluble on expression in E. coli: soluble

Sequence: MKKRLNIGLVGLGCVGSAVAKILQENQEIIKDRAGVGIGIKKAVVRDVKKHKGYPFEISNDLESLIEDEEIDIVVELMGGVEAPYLLAKKTLAKQKAFVTANKAMLAYHRYELEQTAKNTPIGFEASVCGGIPIIKALKDGLSANHILSFKGILNGTSNYILSQMFKNQASFKDALKDAQHLGYAELNPEFDIKGIDAAHKLLILASLAYGIDAKLEEILIEGIEKIEPDDMEFAKEFGYSIKLLGIAKKHPDCIELRVHPSMIKNECMLSKVDGVMNAISVIGDKVGETLYYGAGAGGEPTASAVISDIIEIARKKSSLMLGFETPQKLPLKPKEEIQCAYYARLLVSDEKGVFSQISAILAQNDISLNNVLQKEILHSNKAKILFSTHTTNEKSMLNALKELENLQSVLDTPKMIRLEN
- soluble on expression in E. coli: not soluble

Sequence: MSGGQQERHVLILNTVGGRRAIALEAAAYSLGRDESNAIVIDFETVSRQHAILLRVPVPGTTSYRYRLVDGNANGKPSTNGTFVNGKRISSHELQHGDVILFGRKAKASYLLLSMADTEFSQYLQSIAFQSIKSDLRGAKETLVGMELSGELRRTPNRELVAAGATQLHPELEHHHHHH
- soluble on expression in E. coli: soluble

Sequence: MGSDKIHHHHHHMERPTGVYFQTMTMKQIRERLKQCDLIIIPVGSTENHGPNAPTGEDTFLVTRMAEQVALKTGCTVAEPIWYGYHPYHHIGMPGTVPVKDEAFIDYLVSVIAGFWNTGFRKQILLNGHGQEFVIPIAIHKFAKIFQVPAIIINLNWYHAIQDKFKTKEEGGPYETPFIHADEVETSWSLALFPEFMHQEWAVDTEPKGFLPEGHIDKAGNLLHRPIAWYGHVGGGPIEVVAYPEGVVGKATLASAEKAKEGVEALLDYLEKLVRDIMERFPAGKLPPAEMLSQRPKEELEALTKEPLTEGWRNLYTAGNLWG
- soluble on expression in E. coli: not soluble

Sequence: MDESIDDVQETRTIAIPLKDSHEDEVIEINCSELPDGEEVLQILEAEEAKLSYWIEVALEYYRQDRVDLFMMILESAGSRAGLEYEGVKQDQMRALDILAAYWMTQGYREKAKDKKSDFFSKATVLFNTADKIAMYEWSHLTVRAWFYLFERDKSTNKYELADQQFNYVVKTNPKNVLPLIGKAVIAFNKKDYKTAIYYFRKAIRQCRHTIADLRVGIGHCFAKMGMMDKAKTAFERAMEIEPYNVSAMCGLGIILLNTYDHDSLKHAVSLFGRSYNLQTDHPVALIHLANHFFFKKEIERAWTLAWHAATYNDCDSIKAEAFYQMGRCRHAQGQFDGAYKYYYQARQANNGEHTLAHYGLGQMYIHRNEIEEAIKCFDTVHKRLPNNTDTMKILGSLYAHVQLNDPAQTAEARQKGRDVLGKYLAVENDDYEACIDLAQLLEATDPKRSLELYENAIDLLVTNESIQPQPEMLNNVGALYMSMKQYEKAEHHFKRAKERLEEQLNTDEGSLLLERRSAPEKSHLLTIRYNLALCLEHLCRTVEAEQMYKDIVKECPGYIDGYLRLGCITRDRHQVYESSLWLKQGVQFDQASPIVWTLIGNLHFAKNEWMPAQKKFEFILSKIFNNKIPDPYSLVALGNVWFEQLLNPSRKKEDEKKYIDRALQMYQKALKLQPKNMYAANGIGCVLAYKRNWNDARDVFSQVRESTSEFYDVWLNIAHVCMEREQWMAAVQMYSSAMKKFRKENDSTLQHYLAKAYYRANMLNEAKEALECAMLDQLDNTQLKFNYAIVLKKSAKEVLRGHKMTSEQVTAAIDDLKFADKIFQYISKNDDRQSSHTGMRISRTICAEEAKNCKDLLTQAKHKLAAAQTQDEEERRLMEKQEKEKIALQNKMIEEARAKEEAEKQKLEDMKNLRLSFIEMTKDVLRLPEIVEEKRRGGGGRKRRNDDGDEFVNDSSDAGNYDGEEGGEDGERRERRKKDKAAKKASRKKRERRDSGGPDSNRRDEKKRKRKEERDRKLQEKLSAKQSAKIKSRAFLSSSESSDDDKPKPAADSSDDEVDPRPPVDEFDSPTRTDSDSDRETTTKKKKKKAVVDSDEGSVSGSGSGSDNDDKPIIGGSDDDDDDKPAGGNSRDSDGSDAPKKKVIESDSD
- soluble on expression in E. coli: not soluble

Sequence: MGSDKIHHHHHHMVETLAGLFDFEMDPQSGVALTRQLRDQLRRAIAAGSLASGRRLPSSRALALHLRVSRNTVCAAIEQLAMEGYLDVSRGRRPVVAPMPSAGLVAIGSDRPVSDGRSGMSQWAQRIDRSDWPFISEGRPTPFAPCVADARAFPHAIWGRCLRTATRYAVARTSTACNRPGLRRALLHHLVEYRGVNADAHQVFLMPTAQAAIALVARVLLDPGDLAWVESPGYGGARAAFEAAGATVQGIALDQSGMAFETSTDTPRLIFVTPAHQHPTGLLMPPARRQALLRFAARVGARIIEDDYDSEFHYEGRPVAALQGADDADSVFYVGTFSKSLHADIRVGYVVVPGHFVDVFAKAQRHTGQIVGATLQDALAEFIDDGHYAAHIRKTTRLYHARRDYLCDALKAVGSELTVSPPDGGMQVVARLGPLRDDREICRRLAEAGVTARPLSPHYCAQTGAQGLFLGFAAWNECEIDAGVRILARVIREPEPSK
- soluble on expression in E. coli: not soluble

Sequence: MGSDKIHHHHHHMSICIKDQIQNMNIVIGCTVGCAYCYARNNVKRWHMIDDFAAPEFFPGKLKMMEKKRPQNFLLTGMSDLSGWKPEWRNVVFAKIRENPQHQFLFLTKRPDLLDFDTDLENAWFGVTVTRKAELWRIDALRKNVRAKHYHVTFEPLFDDPGTVDLSGINWIVVGTMTGAQSRKIHTEPEWAWSLADQAHKLGIPVFMKEDIVPIIGDENMIQEMPEEFNKVLEVQKSWKK
- soluble on expression in E. coli: not soluble

Sequence: MDLAKLGLKEVMPTKINLEGLVGDHAFSMEGVGEGNILEGTQEVKISVTKGAPLPFAFDIVSVAFGYGNRAYTGYPEEISDYFLQSFPEGFTYERNIRYQDGGTAIVKSDISLEDGKFIVNVDFKAKDLRRMGPVMQQDIVGMQPSYESMYTNVTSVIGECIIAFKLQTGKHFTYHMRTVYKSKKPVETMPLYHFIQHRLVKTNVDTASGYVVQHETAIAAHSTIKKIEGSLPVDHHHHHH
- soluble on expression in E. coli: soluble
